Data published in article PMC8065039 (Communications Biology, 2021).

Legend:
[1] = biological target: recombinant SARS-CoV-2 Spike RBD (catalogue number not stated for this experiment) (SARS-CoV-2, UniProt P0DTC2); test: ELISA; conditions: both partners purified
[2] = biological target: recombinant SARS-CoV-2 Spike S1 + S2 protein (40589-V08B1, Sino Biological) (SARS-CoV-2, Wuhan-1 (MN908947), UniProt P0DTC2); test: ELISA; conditions: both partners purified
[3] = biological target: SARS-CoV-2 Spike-Trimer protein (Shuimu BioSciences Ltd.) (SARS-CoV-2, Wuhan-Hu-1 assumed, UniProt P0DTC2); test: BLI; conditions: both partners purified
[4] = biological target: extracellular domain of SARS-CoV-2 S protein (S-ECD), 1-1208 aa, with two proline substitutions, GSAS … (SARS-CoV-2, Wuhan-Hu-1, UniProt P0DTC2, proline substitution at residue 986 | proline substitution at residue 987 | …); test: cryo-EM structure; conditions: both partners purified
[5] = biological target: SARS-CoV-2 Spike protein on transfected CHO-K1 cells (GenScript RD00819) (SARS-CoV-2, UniProt P0DTC2); test: cell-based or functional assay

B1: CA521^FALA (human IgG4 monoclonal antibody with the F234A/L235A mutation) (antibody, V domains shown)
VH: EVQLQQWGAGLLKPSETLSLTCAVYGGSFSGYYWSWIRQPPGKGLEWIGEVNHSGSTNYNPSLKSRVTISVDTSKNQLSLKLNSVTAADTAVYYCARGNTMVRGVIIPFEYWDKGTLVTVSS
VL: EIVLTQSPATLSLSPGERATLSCRASQSVSSYLAWYQQKPGQAPRLLIYDASNRATGIPARFSGSGSGTDFTLTISSLEPEDFAVYYCQQRSNWPLTFGGGTKVEIK
notes: also called CA521^FALA IgG; full-length CA521^FALA IgG; source: Expi-CHO Expression system, purified (protein A, Q FF, Capto S ImpAct)
IC50 [1]: 0.343 nM
EC50 [2]: 0.014 nM
Kd [3]: < 0.001 nM
binding result [4]: binds
IC50 of inhibition of SARS-CoV-2 pseudovirus transduction into Huh-7 cells [5]: 0.121 nM
